For data set [1], the target named is T1, HspB6-meGFP-His6 (human), O14558.
T1 chain: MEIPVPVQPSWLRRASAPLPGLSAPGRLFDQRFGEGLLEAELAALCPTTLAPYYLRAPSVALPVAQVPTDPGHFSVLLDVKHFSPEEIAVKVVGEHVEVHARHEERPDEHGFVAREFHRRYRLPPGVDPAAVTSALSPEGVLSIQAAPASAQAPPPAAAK
The experiment in a line: microfluidic diffusional sizing. Particulars: remark: other sources report otherwise.

Data set [2] deals with T2, FUS-mscarlet3, released from MBP-FUS-mscarlet3-His6 by TEV protease (UniProt P35637 1-526).
T2 sequence: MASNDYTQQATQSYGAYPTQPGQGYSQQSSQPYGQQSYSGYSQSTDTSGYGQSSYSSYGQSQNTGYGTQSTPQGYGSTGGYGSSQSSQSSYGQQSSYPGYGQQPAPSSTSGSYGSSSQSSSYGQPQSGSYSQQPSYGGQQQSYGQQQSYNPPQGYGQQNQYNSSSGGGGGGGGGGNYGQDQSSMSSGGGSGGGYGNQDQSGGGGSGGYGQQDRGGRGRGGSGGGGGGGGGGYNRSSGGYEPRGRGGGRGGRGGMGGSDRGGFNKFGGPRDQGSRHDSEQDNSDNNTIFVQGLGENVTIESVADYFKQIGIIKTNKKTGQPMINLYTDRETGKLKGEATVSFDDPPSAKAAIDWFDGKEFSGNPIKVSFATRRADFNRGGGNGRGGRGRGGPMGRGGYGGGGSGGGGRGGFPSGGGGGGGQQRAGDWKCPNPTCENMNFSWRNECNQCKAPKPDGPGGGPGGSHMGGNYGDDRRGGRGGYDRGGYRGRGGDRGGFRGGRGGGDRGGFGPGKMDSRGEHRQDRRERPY
The experiment in a line: fluorescence polarisation. A general note: Polarisation of emitted light reports the rotation of a fluorescent probe.

Data set [3] concerns the molecule itself. The experiment in a line: microfluidic diffusional sizing.

B1: HspB6-meGFP-His6, O14558 1-160 (natural protein)
chain: MEIPVPVQPSWLRRASAPLPGLSAPGRLFDQRFGEGLLEAELAALCPTTLAPYYLRAPSVALPVAQVPTDPGHFSVLLDVKHFSPEEIAVKVVGEHVEVHARHEERPDEHGFVAREFHRRYRLPPGVDPAAVTSALSPEGVLSIQAAPASAQAPPPAAAK
In the case of B1, the stoichiometry N (commonly a count of units in the complex or per binding partner) in data set [1] stood at 2.

B2: HspB4-meGFP-His6 (natural protein)
chain: MDVTIQHPWFKRTLGPFYPSRLFDQFFGEGLFEYDLLPFLSSTISPYYRQSLFRTVLDSGISEVRSDRDKFVIFLDVKHFSPEDLTVKVQDDFVEIHGKHNERQDDHGYISREFHRRYRLPSNVDQSALSCSLSADGMLTFCGPKIQTGLDATHAERAIPVSREEKPTSAPSS
Turning to B2, in data set [2], the binding result is listed as “binds”.

B3: HspB5-meGFP-His6 (natural protein)
chain: MDIAIHHPWIRRPFFPFHSPSRLFDQFFGEHLLESDLFPTSTSLSPFYLRPPSFLRAPSWFDTGLSEMRLEKDRFSVNLDVKHFSPEELKVKVLGDVIEVHGKHEERQDEHGFISREFHRKYRIPADVDPLTITSSLSSDGVLTVNGPRKQVSGPERTIPITREEKPAVTAAPKK
With B3, the binding result in data set [3] is on record as “binds”.

The values above are taken from publication doi:10.1101/2024.01.23.576883 (bioRxiv, 2024).
